Laboratory results from patent US12618828B2, “Probe and method for detecting membrane-associated molecules in living cells” (priority 2021, dated 2026).

B1: GAP43-SSGSSGTG-HALO-GRK2ct (protein)
chain: MLCCMRRTKQVEKNDEDQNSSGSSGTGAEIGTGFPFDPHYVEVLGERMHYVDVGPRDGTPVLFLHGNPTSSYVWRNIIPHVAPTHRCIAPDLIGMGKSDKPDLGYFFDDHVRFMDAFIEALGLEEVVLVIHDWGSALGFHWAKRNPERVKGIAFMEFIRPIPTWDEWPEFARETFQAFRTTDVGRKLIIDQNVFIEGTLPMGVVRPLTEVEMDHYREPFLNPVDREPLWRFPNELPIAGEPANIVALVEEYMDWLHQSPVPKLLFWGTPGVLIPPAEAARLAKSLPNCKAVDIGPGLNLLQEDNPDLIGSEIARWLSTLEISGGSSRNFPLVISERWQQEVAETVYEAVNADTDKIEARKRAKNKQLGHEEDYALGRDCIVHGYMLKLGNPFLTQWQRRYFYLFPNRLEWRGEGESRQSLLTMEQIVSVEETQIKDKKCILLRIKGGKQFVLQCESDPEFVQWKKELTETFMEAQRLLRRAPKFLNKSRSAVVELSKPPLCHRNSNGLGSRG
modifications: HALO labelled with JF-549; GAP43-SSGSSGTG-HALO-GRK2ct
notes: Protein probe: GAP43 fragment anchor, SSGSSGTG linker, HALO (labelled with JF-549), GRK2 fragment with PH domain
B2: KB1753-HALO-GSGGSGG-hRas (protein)
chain: MSSRGYYHGIWVGEEGRLSRAEIGTGFPFDPHYVEVLGERMHYVDVGPRDGTPVLFLHGNPTSSYVWRNIIPHVAPTHRCIAPDLIGMGKSDKPDLGYFFDDHVRFMDAFIEALGLEEVVLVIHDWGSALGFHWAKRNPERVKGIAFMEFIRPIPTWDEWPEFARETFQAFRTTDVGRKLIIDQNVFIEGTLPMGVVRPLTEVEMDHYREPFLNPVDREPLWRFPNELPIAGEPANIVALVEEYMDWLHQSPVPKLLFWGTPGVLIPPAEAARLAKSLPNCKAVDIGPGLNLLQEDNPDLIGSEIARWLSTLEISGGSGGSGGCMSCKCVLS
modifications: HALO labelled with JF-549; KB1753-HALO-GSGGSGG-hRas
notes: Protein probe: hRas fragment anchor, GSGGSGG linker, HALO fluorogenic protein (labelled with JF-549), peptide KB1753
B3: KB1753-mScarlet-GSGGSGG-hRas (protein)
chain: MSSRGYYHGIWVGEEGRLSRVSKGEAVIKEFMRFKVHMEGSMNGHEFEIEGEGEGRPYEGTQTAKLKVTKGGPLPFSWDILSPQFMYGSRAFTKHPADIPDYYKQSFPEGFKWERVMNFEDGGAVTVTQDTSLEDGTLIYKVKLRGTNFPPDGPVMQKKTMGWEASTERLYPEDGVLKGDIKMALRLKDGGRYLADFKTTYKAKKPVQMPGAYNVDRKLDITSHNEDYTVVEQYERSEGRHSTGGMDELYKGSGGSGGCMSCKCVLS
modifications: KB1753-mScarlet-GSGGSGG-hRas
notes: Protein probe: hRas fragment anchor, GSGGSGG linker, mScarlet, peptide KB1753
B4: KB1753-SNAP-GSGGSGG-hRas (protein)
chain: MSSRGYYHGIWVGEEGRLSRDKDCEMKRTTLDSPLGKLELSGCEQGLHRIIFLGKGTSAADAVEVPAPAAVLGGPEPLMQATAWLNAYFHQPEAIEEFPVPALHHPVFQQESFTRQVLWKLLKVVKFGEVISYSHLAALAGNPAATAAVKTALSGNPVPILIPCHRVVQGDLDVGGYEGGLAVKEWLLAHEGHRLGKPGLGSGGSGGCMSCKCVLS
modifications: SNAP labelled with SNAP Cell 430; KB1753-SNAP-GSGGSGG-hRas
notes: Protein probe: hRas fragment anchor, GSGGSGG linker, SNAP fluorogenic protein (labelled with SNAP Cell 430), peptide KB1753

Tests used:
Format in all cases: cell-based
GβGγ dimer = target: T1, GβGγ dimer (Homo sapiens, UniProt P59768+P62873); experiment: Polarization microscopy of probe in HEK293 cells, with or without cotransfected GβGγ dimer; settings: cotransfection of plasmids encoding the, excitation polarization resolved single-photon confocal microscopy
T1 construct: expressed in transfected cells; host or cells: HEK293
Description: (§1) Prior to microscopy observations, mammalian cells (HEK293) were cultured at 37° C. under an atmosphere of 95% air, 5% CO2, in Dulbecco's modified Eagle's medium with Glutamax I and high glucose (Life Technologies), supplemented with 10% fetal bovine serum. Cells were plated on 8-chamber microscopy slides (p-Slides, Ibidi GmbH, Germany). Transfections were carried out using 0.2 μg of plasmid DNA and Lipofectamine 2000 (Life Technologies), according to the protocol of the manufacturer. In cotransfections, 0.2 μg of each of the plasmids were used. Microscopy experiments were carried out 48 h after transfection. […]
(§2) In excitation polarization resolved single-photon laser scanning confocal microscopy, the cells (in the multi-well cover slip) were observed using a single-photon laser scanning confocal microscope Olympus FV1200, modified for excitation-polarization resolved microscopy. […] Fluorescence of wavelengths in the range of 510-610 nm was separated from the excitation light by a long-pass dichroic mirror (DM405/488, Olympus, Japan), diffractive grating, and an adjustable slit, and detected by a photomultiplier. […]
(§3) The resulting images were deconvolved and quantitatively analyzed by following published procedures (Bondar A & al., Communications Biology. 2021 Feb. 12; 4(1):1-2.) that rely on publicly available software tools. […]

[1] = target: T2, activated form of the G-protein Gαi1 (Gαi1(Q204L)) (Homo sapiens, UniProt P63096, Q204L); experiment: Polarization microscopy of probe in HEK293 cells, with or without cotransfected constitutively activated Gαi1(Q204L); settings: cotransfection of Gαi1(Q204L) plasmid, excitation polarization resolved single-photon laser scanning confocal microscopy
T2 construct: expressed in transfected cells; host or cells: HEK293
Description: A protein (SEQ ID NO:5) that includes as an anchoring moiety a fragment of the protein h-Ras, a flexible peptide linker (amino acid sequence GSGGSGG (SEQ ID NO:1)), a monomeric enhanced green fluorescent protein (meGFP) as a fluorescent moiety, and an affinity binding peptide KB1753 known to bind the activated form of the G-protein Gαi1 (Johnston C A & al., Structure. 2005 Jul. 1; 13(7):1069-80), was encoded into a DNA sequence (SEQ ID NO:6) and cloned into a mammalian expression vector (pcDNA3.1(+)) under the control of the cytomegalovirus (CMV) promoter. The resulting DNA encoding the probe of invention was transfected into HEK293 cells either alone, or along with DNA encoding the target protein of the probe.
Prior to microscopy observations, mammalian cells (HEK293) were cultured at 37° C. under an atmosphere of 95% air, 5% CO2, in Dulbecco's modified Eagle's medium with Glutamax I and high glucose (Life Technologies), supplemented with 10% fetal bovine serum. […]
The cells were observed by excitation polarization resolved single-photon laser scanning confocal microscopy, by excitation polarization resolved two-photon laser scanning microscopy, by excitation polarization resolved single-photon wide-field fluorescence microscopy, and by fluorescence polarization resolved single-photon laser scanning confocal microscopy.
as §2, §3

activated form of Gαi1 = target: T3, activated form of Gαi1 (Homo sapiens, UniProt P63096); experiment: Polarization microscopy of probe in HEK293 cells, Gαi1 activated through the α2-adrenergic receptor by norepinephrine; settings: HEK293 cells cotransfected with Gαi1, Gβ1, Gγ2 and α2-adrenergic receptor; 10 μM norepinephrine; excitation polarization resolved single-photon confocal microscopy
T3 construct: expressed in transfected cells; host or cells: HEK293
Description: as §1, §2, §3

T2 sequence (P63096 whole entry Q204L): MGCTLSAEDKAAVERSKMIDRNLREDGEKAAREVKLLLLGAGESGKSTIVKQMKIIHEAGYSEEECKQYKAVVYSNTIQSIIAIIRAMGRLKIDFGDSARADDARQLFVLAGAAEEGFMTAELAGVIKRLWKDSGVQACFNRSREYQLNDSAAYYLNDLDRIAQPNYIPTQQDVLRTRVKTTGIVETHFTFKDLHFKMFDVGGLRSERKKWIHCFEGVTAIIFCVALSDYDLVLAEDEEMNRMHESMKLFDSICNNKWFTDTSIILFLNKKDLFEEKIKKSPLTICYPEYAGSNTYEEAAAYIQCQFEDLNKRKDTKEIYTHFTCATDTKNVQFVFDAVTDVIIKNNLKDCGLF
T3 sequence (P63096 whole entry): as the sequence (P63096 whole entry Q204L) above, with L204Q counted along it
T1 sequence (P62873 2-340 limits assumed): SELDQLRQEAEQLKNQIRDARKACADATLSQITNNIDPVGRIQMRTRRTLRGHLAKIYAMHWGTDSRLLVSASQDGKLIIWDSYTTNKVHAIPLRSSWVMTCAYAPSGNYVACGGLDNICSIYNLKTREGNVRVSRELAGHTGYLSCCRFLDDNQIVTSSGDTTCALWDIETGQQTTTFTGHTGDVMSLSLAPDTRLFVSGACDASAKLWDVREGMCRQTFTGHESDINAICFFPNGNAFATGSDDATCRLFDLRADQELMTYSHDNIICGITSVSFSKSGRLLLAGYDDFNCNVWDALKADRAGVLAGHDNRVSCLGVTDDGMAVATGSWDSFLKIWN
T1 sequence (P59768 2-68 limits assumed): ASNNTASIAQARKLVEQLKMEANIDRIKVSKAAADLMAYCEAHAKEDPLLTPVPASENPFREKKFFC

| Molecule | linear dichroism of the fluorescent moiety of the probe in presence of its target molecule compared with absence (GβGγ dimer) | linear dichroism of the fluorescent moiety of the probe in presence of its target molecule compared with absence [1] | linear dichroism of the fluorescent moiety of the probe in presence of activated Gαi1 compared with absence (activated form of Gαi1) |
| --- | --- | --- | --- |
| B1 | statistically significantly higher |  |  |
| B2 |  | statistically significantly lower | statistically significantly lower |
| B3 |  | statistically significantly higher | statistically significantly higher |
| B4 |  | statistically significantly higher |  |
